Tests used:
[1] = target: mouse PD-1-Ig (extracellular domain of mouse PD-1 linked to the Fc portion of mouse IgG2a) (mouse) (UniProt Q02242); assay: capture ELISA; PD-1-Ig coated on plate, COS supernatant, anti-human IgG-HRP
[2] = test system: CT26 colorectal tumor cells; assay: Established CT26 tumor model, eradication and rechallenge; settings: CTX alone, 100 mg/kg on day 10

UniProt Q02242, sequence (Q02242 25-169): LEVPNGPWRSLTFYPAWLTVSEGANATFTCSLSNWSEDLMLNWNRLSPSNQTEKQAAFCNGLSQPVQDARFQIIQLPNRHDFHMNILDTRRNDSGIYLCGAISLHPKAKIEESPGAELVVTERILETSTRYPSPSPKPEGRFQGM

mouse B7-H1-Ig I115A (from UniProt Q9EP73 19-239) (Fc fusion)
Binding activity ELISA (%) [1]: 3%

O=P1(N(CCCl)CCCl)NCCCO1 (stereo not drawn) [CTX, cyclophosphamide]
outcome of tumor bearing mice [2]: died as a result of tumor growth or were euthanized

mouse B7-H1-Ig F67A (from UniProt Q9EP73 19-239) (Fc fusion)
Binding activity ELISA (%) [1]: 2%
